In article PMC2697320, “Identification of the high affinity binding site in the Streptococcus intermedius toxin intermedilysin for its membrane receptor, the human complement regulator CD59” (Molecular Immunology, 2009):

Target: Human CD59 on human erythrocytes (human (endogenous in human erythrocytes)) (UniProt P13987)
Sequence (P13987 26-102): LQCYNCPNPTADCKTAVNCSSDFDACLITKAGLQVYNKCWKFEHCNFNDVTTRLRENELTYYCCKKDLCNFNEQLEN

Q: Which fold increase of the dose required for 50% hemolysis of human erythrocytes against native ILY does the source give for ILY LI > TV mutant (natural protein) here?
A: 2.5 fold
